The results in this text go back to patent publication US8956838B2, “Carboxyl esterase polypeptides” (B.R.A.I.N., priority 2006, dated 2015).

Holding throughout (format): biochemical
The nature of series [1]: Enzyme activity with pNP-acylesters of different chain length. To be noted: substrate pNP-caproate (C6); 4 mM, 45° C., pH 7.2. The protocol:
Enzyme activity tests were performed by incubating the enzyme with 4 mM substrate at 45° C. in 100 mM Tris-HCl buffer at pH 7.2, unless otherwise indicated. The reaction was measured at 410 nm. One unit is defined as the amount of enzyme catalyzing the appearance of 1 μmol of free p-nitrophenol/min. Enzyme activity against pNP-acylesters (butyrate, valerate, caproate, octanoate, decanoate and palmitate) was tested under the above conditions. […] The enzyme according to SEQ ID NO: 6 converted pNP-caproate with a specific activity of 80.0 U/mg.

The nature of series [2]: Titration assay with triglycerides. To be noted: 10 mM, 37° C., pH 7.0. The procedure:
(§1) Enzyme activities on the substrates triacetin, tripropionin, tributyrin, tricaprylene, trilaurin and vinyl-substrates (vinyl-acetate, ˜propionate, ˜butyrate, ˜caproate, ˜caprylate and ˜laurate) were determined using a standard titration assay with minor modifications. Tests were performed with a Methrom 718 STAT potentiometric titrator (Herisau, Switzerland) and by using 10 mM NaOH for titration. The substrates at 10 mM concentration were emulsified in 20 ml reaction buffer containing 2 mM Tris/HCl pH 7.0. After addition of 7.5 μg of the purified enzyme the NaOH consumption was recorded at a reaction temperature of 37° C. One unit was defined as the amount of enzyme that released […] of fatty acid per min.

Series [3] is described as follows: Titration assay with vinyl acid esters. To be noted: 10 mM, 37° C., pH 7.0. The procedure: as §1
Series [4] can be described thus: Enantioselectivity, GC analysis of hydrolysis of acetic acid esters. The procedure: To assay the activity of the enzymes on a range of acetic acid esters gas chromatography was used. The samples were analyzed for the production of chiral alcohols by the gas chromatograph GC-17A (Shimadzu, Duisburg, Germany) equipped with FID detector and CP-Chirasil-DEX CB (Chrompack (Middelburg, Netherlands), 25 m×0.25 mm ID) at a helium flow of 1.3 ml/min. The temperature programme included: 5 min at 60° C., followed by an increase of 5° C. per min until 190° C. was reached. For the GC analysis, activity-tests were run in 1 M Tris buffered solutions and using 10 mM substrates dissolved in DMSO as 0.1 M stock solutions. 2 μg of the enzyme were added and tests incubated over night before the corresponding alcohols could be extracted by treatment with acetic acid ethyl ester and analyzed by GC.

The mark [5] stands for this setting: substrate Acetic acid ester of tetrahydronaphthylamin.
The mark [6] stands for this setting: substrate acetic acid ester of (+/−)-1-octin-3-ol, 10 mM, over night.
Setting [7] is: substrate acetic acid ester of phenylethylamin.
Setting [8] is: substrate cis-3,5-diacetoxy-1-cyclopenten.
Where [9] appears, read: substrate cis-3,5-diacetoxy-1-cyclopenten, conversion for the preferred enantiomer.
[10] abbreviates: substrate isopropylidenglycerolacetate (rac.), values marked ^1: substrate conversion after 12 h.

B1: EstCL1: recombinant enzyme having carboxyl esterase activity, amino acid sequence SEQ ID NO: 6, family IV of bacterial lipolytic enzymes (protein)
chain: MTDPYVRPDVAMFLAFLNNAPGPKLHELSAPEARMVQNAMRDMADAPVGELAVMRDLEIPGPAGTIMARLYDKQPGRGSGPAMVFFHGGGFVIGNIHTYEPFCAEVARLLDLPVISVEYRLGPESPFPAAFEDCEAAARWVASKPEALGFDVSGLILSGDSAGGNLTISTSMALRDVAAGVPVIAQMPIYPVVTLDPDWPSMRDFADGYLLTAELIQWFGDGHGASGEDYRTHPLDFDQSGMPPTVITTASLDPLRDQGMAYFEKLKAAGVRAEHISAEGNIHGHINVRKGIPSSQQDVEGYVTALTAMLAGVMAEA
modifications: metagenomic sequence
In the case of B1, the specific activity in series [1] amounted to 80.0 U/mg; in series [2] (substrate triacetin (C2)), 120 U/mg; in series [2] (substrate tributyrin (C4)) it was 330 U/mg; in series [2] (substrate tricaprylin (C8)) it was 0 U/mg; in series [2] (substrate trilaurin (C12)) it was 0 U/mg; in series [2] (substrate tripropionin (C3)) it was 200 U/mg. The specific activity in series [3] (substrate vinyl acetate (C2)) is on record as 0 U/mg; in series [3] (substrate vinyl butyrate (C4)), 550 U/mg; in series [3] (substrate vinyl caprylate (C8)), 80 U/mg; in series [3] (substrate vinyl laurinate (C12)), 0 U/mg; in series [3] (substrate vinyl propionate (C3)) it was 173 U/mg. For the same molecule, the “conversion % of 1.e” value in series [4] (setting [5]) was found to be 0%; in series [4] (setting [6]), 0%; in series [4] (setting [7]) it was 0%; in series [4] (setting [9]), 100%; in series [4] (setting [10]), 0%; in series [4] (substrate menthylacetate, 1. enantiomer (+)), 0%. The “conversion % of 2.e” value in series [4] (setting [5]) is given as 0%; in series [4] (setting [6]), 0%; in series [4] (setting [7]), 0%; in series [4] (setting [8]), 0%; in series [4] (setting [10]) it was 35%; in series [4] (substrate menthylacetate, 2.e. (−)), 0%. Further, the ee % in series [4] (setting [8]) and in series [4] (substrate isopropylidenglycerolacetate (rac.)) was 100% each time.

B2: EstCL2: recombinant enzyme having carboxyl esterase activity, amino acid sequence SEQ ID NO: 8, family V of bacterial lipolytic enzymes (protein)
chain: MKRKTIFSRLSFAALGLFAVATIALDAKAATTCPAGAICRYEEAPGSYSGNGPYTVRSYTLSRLQTPGGATVYYPSNARPPFSGVVFTPPYTGIQSMFAAWGPFFASHGIVMVTMDTNTTLDTVDQRASQQKQVLDALKRENTRSASALYGKLNTARLGAVGWSMGGGATWINSAEYAGLKSAMSLAGHNLTTVDIDSRGGNTRIPTLILNGALDLTYLGGLGQSDGVYNNIRSGVPKVFYEVSSAGHFAWGSPTSANRAVAGIALAFHKTFLDGDTRWVSYIKRPSSDVSKWATASLPQ
modifications: metagenomic sequence
Regarding B2, in series [4] (setting [8]), the “conversion % of 2.e” value amounted to 0%. Further, the “conversion % of 1.e” value in series [4] (setting [9]) stood at 100%. Moreover, the ee % in series [4] (substrate cis-3,5-diacetoxy-1-cyclopenten, listed as EstCl2) was 76.3%; in series [4] (substrate cis-3,5-diacetoxy-1-cyclopenten, listed as SEQ ID NO: 8) it was 76%.
